Laboratory results: paper PMC4735112, “The Functional Unit of Neisseria meningitidis 3-Deoxy-ᴅ-Arabino-Heptulosonate 7-Phosphate Synthase Is Dimeric” (PLoS ONE, 2016)

How the values were obtained:
[1] = biological target: Neisseria meningitidis 3-deoxy-D-arabino-heptulosonate 7-phosphate synthase, R126S variant (N. meningitidis) (UniProt Q9K169); assay: SEC
[2] = biological target: Neisseria meningitidis 3-deoxy-D-arabino-heptulosonate 7-phosphate synthase, R126S variant (N. meningitidis) (UniProt Q9K169); assay: crystal structure
[3] = biological target: Neisseria meningitidis 3-deoxy-D-arabino-heptulosonate 7-phosphate synthase, R126S variant (N. meningitidis) (UniProt Q9K169); assay: AUC; sedimentation velocity, 20°C, 10 mM BTP pH 7.3, 100 mM KCl, 200 μM PEP; 0.2, 0.4 and 1.2 mg/mL; continuous size distribution model (SEDFIT)
[4] = biological target: Neisseria meningitidis 3-deoxy-D-arabino-heptulosonate 7-phosphate synthase, R126S variant (N. meningitidis) (UniProt Q9K169); assay: SAXS; SEC-coupled small angle X-ray scattering, 25°C, 10 mM BTP pH 7.5, 100 mM KCl, 200 μM PEP; initial 7 mg/mL (wild type) and 12 mg/mL (R126S) prior to SEC; CRYSOL fits to tetramer and tight dimer of the crystal structure

Substance: Neisseria meningitidis 3-deoxy-D-arabino-heptulosonate 7-phosphate synthase, R126S variant (from UniProt Q9K169 1-351) (enzyme)
- stoichiometry N [1]: 2
- stoichiometry N [2]: 4
- stoichiometry N [3]: 2
- stoichiometry N [4]: 2
